Experimental data reported in US20060067886A1, “Gastrin receptor-avid peptide conjugates” (priority 1997, published 2006).

Tests used:
in vivo = settings: SCID, mouse, in vivo, iv, 4 uCi, total radioactivity, Avg % ID, Muscle
Experimental: In vivo pharmacokinetic studies in human tumor bearing SCID mice. […] The xenograft models were produced by bilateral flank inoculation of 5×10^6 cells (PC-3 or MDA-MB-231 cells) per site. Four to six weeks post inoculation, palpable tumors were observed. At this point, the mice were injected with 4 μCi of the complex in […] of isotonic saline via the tail vein. The mice were euthanized and tissues and organs were excised from the animals at selected times post-injection (p.i.), including 15 minutes, 30 minutes, 1 hour, 4 hours, 24 hours, 48 hours, and 72 hours p.i. Subsequently, the tissues and organs were weighed and counted in a NaI well counter and the percent injected dose (% ID) and % ID/g of each organ or tissue calculated.
The mice were injected with 4 μCi of the complex in 100 μL of isotonic saline via the tail vein. The mice were euthanized by cervical dislocation. Tissues and organs were excised from the animals following at 1 hour, 4 hour, and 24 hours post-injection (p.i.). Subsequently, the tissues and organs were weighed and counted in a NaI well counter and the percent injected dose (% ID) and % ID/g of each organ or tissue calculated.

[1] = tested on: PC-3 human tumor xenografts; assay: Single dose radiotherapy in PC-3 tumor bearing SCID mice; format: in vivo; settings: up to 20 mCi/kg single dose
From the text: In vivo pre-clinical evaluation of single dose radiotherapy in human tumor bearing SCID mice. […] The xenograft model was produced by bilateral flank inoculation of 5×10^6 PC-3 cells per site. […] Baseline weights, hematology profiles, and tumor measurements were obtained immediately prior to therapy administration. Four groups of animals were utilized; a saline placebo, a 5 mCi/kg single dose, a 10 mCi/kg single dose, and a 20 mCi/kg single dose. Tumor measurements and weights were obtained twice weekly throughout the 14 weeks post injection.

Structure (SMILES): CSCC[C@H](NC(=O)[C@H](CC(C)C)NC(=O)[C@H](Cc1cnc[nH]1)NC(=O)CNC(=O)[C@@H](NC(=O)[C@H](C)NC(=O)[C@H](Cc1c[nH]c2ccccc12)NC(=O)[C@H](CCC(N)=O)NC(=O)CCCCCCCNC(=O)CN1CCN(CC(=O)O)CCN(CC(=O)O)CCN(CC(=O)O)CC1)C(C)C)C(N)=O [90Y-DOTA-8-Aoc-BBN[7-14]NH2, metal not drawn]
- tissue uptake dose at 4 h (in vivo; 4 hrs): 0.01 ± 0.01 %ID
- tissue uptake dose at 48 h (in vivo; 48 hrs): 0.01 ± 0.02 %ID
- tissue uptake dose at 72 h (in vivo; 72 hrs): 0.01 ± 0.02 %ID
- tolerability of radiation doses [1]: well tolerated
